System: MTE cell cultures
Assay: IL-13 treatment of MTE cell cultures, Periodic Acid Schiff-stained cross-sections
Format: cell-based, mouse
Conditions: for proliferation of MTE cell cultures in response to IL-13: Method 2 cultures (5% serum until air/liquid interface)
Description: FIGS. 2A and 2B includes two photographs of Periodic Acid Schiff-stained cross-sections of MTE cell cultures. FIG. 2B depicts the control culture that was only exposed to the normal media required for MTE cell growth, while FIG. 2A depicts the IL-13-treated culture which was exposed to recombinant murine IL-13 (10ng/ml) for 9 days.
Epithelial cells isolated from the trachea of two mice were used to seed a one cm^2 area. Cells were placed in the apical chamber of the culture insert in medium comprising DMEM F12 plus additives (see above table). The basolateral chamber was supplied with medium and 10% FCS for 24 hours, after which FCS was no longer added to the basolateral media. Cells were maintained for 5 days and then the apical media was removed to create an air/liquid interface. Cells were then maintained in culture for approximately 16 more days.
The present methods were also used to achieve MTE cultures grown with 5% serum until the air/liquid interface is established. This is referred to as “Method 2—Combination.” This approach allows for more rapid growth of the cells while removing the confounding effects of serum for the experimentation period. […] FIGS. 2A and 2B illustrate the increase in the epithelial cell number of cell cultures exposed to an IL-13 regimen. Specifically FIGS. 2A and 2B show two photographs of Periodic Acid Schiff-stained cross-sections of MTE cell cultures. FIG. 2A depicts an IL-13-treated culture that was exposed to recombinant murine IL-13 (10ng/ml) for 9 days while FIG. 2B is a photograph of a control culture that was only exposed to the normal media required for MTE cell growth.

B1: IL-13: recombinant murine IL-13, an inflammatory mediator shown to mediate epithelial cell proliferation (protein, UniProt P20109 19-131, looked up)
Interleukin-13: APGPVPRSVSLPLTLKELIEELSNITQDQTPLCNGSMVWSVDLAAGGFCVALDSLTNISNCNAIYRTQRILHGLCNRKAPTTVSSLPDTKIEVAHFITKLLSYTKQLFRHGPF
Question: Which “proliferation of MTE cell cultures in response to IL-13” value does the source give for B1 here?
Answer: The value was “respond to IL-13 with proliferation”.

Question: What about the “proliferation of MTE cell cultures in response to IL-13” value (listed as interleukin 13) of the same molecule?
Answer: The value was “proliferate”.

Question: What about the epithelial cell number (recombinant murine IL-13 10ng/ml for 9 days vs control culture in normal media, FIGS. 2A and 2B) of the same molecule?
Answer: Its epithelial cell number is “increase in epithelial cell number”.

From patent publication US6933149B2, “Culture system for mouse tracheal epithelial cells” (North Carolina State University, priority 2001, dated 2005)
